How the values were obtained:
Human Tie2 (1-452)g2-Fc = target: T1, Human Tie2 (1-452)g2-Fc (human, UniProt Q02763 23-452); experiment: ELISA; Tie2-Fc coated at 1 ug/mL; signal at 100 ng/mL antibody vs convergence value on the parent
T1 construct: range 1-452
Description: (§1) The next day, the immobilized solution was removed, and the plate was washed with a TBS-T solution, and incubated for 60 minutes by the addition of 50 μL of a Blocker™ Casein in TBS (Thermo Fisher Scientific Inc., 37532) to perform blocking. The resultant was washed with a TBS-T solution, and TIE-1-Igγ1-LALA, diluted with 0.05% Tween 20 (Nacalai Tesque Inc., 28353-85)—containing Blocker™ Casein in TBS from 0.03 ng/mL to 100 ng/mL through eight steps, was added thereto in the amount of 20 μL per well. The resultant was incubated at room temperature for 90 minutes and then washed with a TBS-T solution three times, and 20 μL of a biotin-labeled anti-human kappa light chain antibody, which had been diluted to 0.1 μg/mL with 0.05% Tween 20-containing Blocker™ Casein in TBS, was added thereto. The resultant was incubated at room temperature for 60 minutes and then washed with a TBS-T solution three times, and 20 μL of alkaline phosphatase-labeled streptavidin, which had been diluted to 0.1 μg/mL with 0.05% Tween 20-containing Blocker™ Casein in TBS, was added thereto. The resultant was incubated at room temperature for 60 minutes and then washed with a TBS-T solution three times, and 50 μL of Chemiluminescent Ultra Sensitive AP Microwell and/or Membrane Substrate (450 nm), which had been 5-fold diluted with 1 mM MgCl₂-containing 20 mM TBS (pH 9.8) as a substrate, was added thereto. The resultant was incubated at room temperature under light-shielding for 40 minutes, and then luminescent intensity thereof was measured with an EnVision™ multi-label counter. The EC₅₀ value of TIE-1-Igγ1-LALA with respect to the human Tie2 (1-452)-Fc chimeric protein and 23 mutant proteins thereof were calculated. The relative value of luminescent intensity of 100 ng/mL TIE-1-Igγ1-LALA as maximum concentration point with respect to human Tie2 (1-452)-Fc chimeric protein and 23 mutant proteins thereof when the convergence value of the sigmoid curve of TIE-1-Igγ1-LALA binding to the human Tie2 (1-452)-Fc chimeric protein which was taken as 100% was calculated (Table 8 and Table 9). Further, the EC₅₀ value and the convergence value were calculated by Sigmoid-Emax model non-linear regression analysis.

Human Tie2 (1-452)y1-Fc = target: T2, Human Tie2 (1-452)y1-Fc (human, UniProt Q02763 23-452); experiment: as above
T2 construct: range 1-452
Description: as §1

[1] = target: T3, human Tie2 (1-452)-Fc chimeric protein (human, UniProt Q02763 23-452); experiment: as above
T3 construct: range 1-452; The stated range 1-452 begins at residue 1 of the precursor
Description: as §1

Human Tie2 (1-452)r4-Fc = target: T4, Human Tie2 (1-452)r4-Fc (human, UniProt Q02763 23-452); experiment: as above
T4 construct: range 1-452
Description: as §1

Human Tie2 (1-452)g3-Fc [2] = target: T5, Human Tie2 (1-452)g3-Fc (human, UniProt Q02763 23-452); experiment: as above
T5 construct: range 1-452
Description: as §1

Human Tie2 (1-452)r2-Fc = target: T6, Human Tie2 (1-452)r2-Fc (human, UniProt Q02763 23-452); experiment: as above
T6 construct: range 1-452
Description: as §1

Human Tie2 (1-452)r1-Fc = target: T7, Human Tie2 (1-452)r1-Fc (human, UniProt Q02763 23-452); experiment: as above
T7 construct: range 1-452
Description: as §1

Human Tie2 (1-452)c1-Fc = target: T8, Human Tie2 (1-452)c1-Fc (human, UniProt Q02763 23-452); experiment: as above
T8 construct: range 1-452
Description: as §1

Human Tie2 (1-452)g6-Fc = target: T9, Human Tie2 (1-452)g6-Fc (human, UniProt Q02763 23-452); experiment: as above
T9 construct: range 1-452
Description: as §1

Human Tie2 (1-452)r5-Fc = target: T10, Human Tie2 (1-452)r5-Fc (human, UniProt Q02763 23-452); experiment: as above
T10 construct: range 1-452
Description: as §1

Human Tie2 (1-452)g4-Fc = target: T11, Human Tie2 (1-452)g4-Fc (human, UniProt Q02763 23-452); experiment: as above
T11 construct: range 1-452
Description: as §1

Human Tie2 (1-452)m3-Fc = target: T12, Human Tie2 (1-452)m3-Fc (human, UniProt Q02763 23-452); experiment: as above
T12 construct: range 1-452
Description: as §1

Human Tie2 (1-452)g1-Fc = target: T13, Human Tie2 (1-452)g1-Fc (human, UniProt Q02763 23-452); experiment: as above
T13 construct: range 1-452
Description: as §1

Human Tie2 (1-452)r3-Fc = target: T14, Human Tie2 (1-452)r3-Fc (human, UniProt Q02763 23-452); experiment: as above
T14 construct: range 1-452
Description: as §1

Human Tie2 (1-452)m1-Fc = target: T15, Human Tie2 (1-452)m1-Fc (human, UniProt Q02763 23-452); experiment: as above
T15 construct: range 1-452
Description: as §1

[3] = target: T3, human Tie2 (1-452)-Fc chimeric protein; experiment: ELISA; Tie2-Fc coated at 1 ug/mL, chemiluminescence
Description: as §1

Human Tie2 (1-452)g3-Fc [4] = target: T5, Human Tie2 (1-452)g3-Fc; experiment: as above
Description: as §1

T3 sequence (Q02763 other isoform, or with tags, fused parts or gaps mutant limits assumed, form in doubt): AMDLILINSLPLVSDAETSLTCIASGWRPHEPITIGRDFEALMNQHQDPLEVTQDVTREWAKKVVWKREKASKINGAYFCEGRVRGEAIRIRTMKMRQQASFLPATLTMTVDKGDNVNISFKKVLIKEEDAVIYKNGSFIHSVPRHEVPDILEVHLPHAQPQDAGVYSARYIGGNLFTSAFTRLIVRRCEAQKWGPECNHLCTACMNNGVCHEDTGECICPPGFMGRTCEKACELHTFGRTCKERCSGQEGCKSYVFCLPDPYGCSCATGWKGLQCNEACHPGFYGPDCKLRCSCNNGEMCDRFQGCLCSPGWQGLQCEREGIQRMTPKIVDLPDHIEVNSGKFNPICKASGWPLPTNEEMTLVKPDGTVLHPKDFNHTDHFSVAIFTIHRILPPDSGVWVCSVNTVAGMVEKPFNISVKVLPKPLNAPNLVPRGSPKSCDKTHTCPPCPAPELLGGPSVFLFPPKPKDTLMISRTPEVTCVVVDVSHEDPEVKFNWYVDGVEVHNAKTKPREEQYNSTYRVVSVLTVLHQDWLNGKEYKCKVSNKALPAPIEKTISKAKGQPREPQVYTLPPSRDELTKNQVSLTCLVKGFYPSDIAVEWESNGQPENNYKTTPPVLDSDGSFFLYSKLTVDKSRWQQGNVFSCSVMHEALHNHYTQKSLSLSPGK
T5 sequence (Q02763 other isoform, or with tags, fused parts or gaps limits assumed, form in doubt): as the sequence (Q02763 other isoform, or with tags, fused parts or gaps mutant limits assumed, form in doubt) above, with I172A counted along it
T8 sequence (Q02763 other isoform, or with tags, fused parts or gaps limits assumed, form in doubt): as the sequence (Q02763 other isoform, or with tags, fused parts or gaps mutant limits assumed, form in doubt) above, with R28A, H30A, E31A, P32A counted along it
T7 sequence (Q02763 other isoform, or with tags, fused parts or gaps limits assumed, form in doubt): as the sequence (Q02763 other isoform, or with tags, fused parts or gaps mutant limits assumed, form in doubt) above, with R145A, H146A, E147A counted along it
T2 sequence (Q02763 other isoform, or with tags, fused parts or gaps limits assumed, form in doubt): as the sequence (Q02763 other isoform, or with tags, fused parts or gaps mutant limits assumed, form in doubt) above, with D15A counted along it
T12 sequence (Q02763 other isoform, or with tags, fused parts or gaps limits assumed, form in doubt): as the sequence (Q02763 other isoform, or with tags, fused parts or gaps mutant limits assumed, form in doubt) above, with S72A, K73A counted along it
T14 sequence (Q02763 other isoform, or with tags, fused parts or gaps limits assumed, form in doubt): as the sequence (Q02763 other isoform, or with tags, fused parts or gaps mutant limits assumed, form in doubt) above, with R145A counted along it
T4 sequence (Q02763 other isoform, or with tags, fused parts or gaps limits assumed, form in doubt): as the sequence (Q02763 other isoform, or with tags, fused parts or gaps mutant limits assumed, form in doubt) above, with H146A counted along it
T6 sequence (Q02763 other isoform, or with tags, fused parts or gaps limits assumed, form in doubt): as the sequence (Q02763 other isoform, or with tags, fused parts or gaps mutant limits assumed, form in doubt) above, with D150A, I151A counted along it
T13 sequence (Q02763 other isoform, or with tags, fused parts or gaps limits assumed, form in doubt): as the sequence (Q02763 other isoform, or with tags, fused parts or gaps mutant limits assumed, form in doubt) above, with I172A, N175A, L176A counted along it
T1 sequence (Q02763 other isoform, or with tags, fused parts or gaps limits assumed, form in doubt): as the sequence (Q02763 other isoform, or with tags, fused parts or gaps mutant limits assumed, form in doubt) above, with R170A counted along it
T11 sequence (Q02763 other isoform, or with tags, fused parts or gaps limits assumed, form in doubt): as the sequence (Q02763 other isoform, or with tags, fused parts or gaps mutant limits assumed, form in doubt) above, with G173E counted along it
T10 sequence (Q02763 other isoform, or with tags, fused parts or gaps limits assumed, form in doubt): as the sequence (Q02763 other isoform, or with tags, fused parts or gaps mutant limits assumed, form in doubt) above, with E147A counted along it
T9 sequence (Q02763 other isoform, or with tags, fused parts or gaps limits assumed, form in doubt): as the sequence (Q02763 other isoform, or with tags, fused parts or gaps mutant limits assumed, form in doubt) above, with L176A counted along it
T15 sequence (Q02763 other isoform, or with tags, fused parts or gaps limits assumed, form in doubt): as the sequence (Q02763 other isoform, or with tags, fused parts or gaps mutant limits assumed, form in doubt) above, with W60A, K62A counted along it

B1: TIE-1-Igγ1-LALA (antibody, human IgG1, kappa, L234A L235A)
heavy: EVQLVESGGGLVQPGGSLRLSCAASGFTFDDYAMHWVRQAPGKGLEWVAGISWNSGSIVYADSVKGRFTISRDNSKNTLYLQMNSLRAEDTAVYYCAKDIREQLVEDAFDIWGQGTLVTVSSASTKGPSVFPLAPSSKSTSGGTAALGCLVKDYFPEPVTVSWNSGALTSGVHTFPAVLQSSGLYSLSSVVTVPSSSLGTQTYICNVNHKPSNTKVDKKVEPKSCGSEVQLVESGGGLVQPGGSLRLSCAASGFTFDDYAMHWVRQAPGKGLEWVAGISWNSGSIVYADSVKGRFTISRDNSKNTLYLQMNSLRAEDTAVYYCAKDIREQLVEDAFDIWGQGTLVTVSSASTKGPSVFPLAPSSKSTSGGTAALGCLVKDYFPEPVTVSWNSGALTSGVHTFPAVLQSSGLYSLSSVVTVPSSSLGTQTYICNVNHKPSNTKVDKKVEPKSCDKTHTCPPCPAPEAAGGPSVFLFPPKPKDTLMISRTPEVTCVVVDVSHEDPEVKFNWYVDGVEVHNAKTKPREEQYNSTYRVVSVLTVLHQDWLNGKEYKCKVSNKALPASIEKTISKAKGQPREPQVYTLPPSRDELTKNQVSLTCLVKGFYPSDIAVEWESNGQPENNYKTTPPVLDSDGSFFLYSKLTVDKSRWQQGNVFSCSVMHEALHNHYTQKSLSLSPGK
light: DIQMTQSPSSLSASVGDRVTITCRSSQSLLHSHRYNYLDWYQQKPGKAPKLLIYLGSNRASGVPSRFSGSGSGTDFTLTISSVQPEDFATYYCMQTLQTPLTFGQGTKVEIKRTVAAPSVFIFPPSDEQLKSGTASVVCLLNNFYPREAKVQWKVDNALQSGNSQESVTEQDSKDSTYSLSSTLTLSKADYEKHKVYACEVTHQGLSSPVTKSFNRGEC
notes: Tandem tetravalent format: two heavy chains (VH-CH1-linker-VH-CH1-CH2-CH3) and four light chains; also called tetravalent anti-human Tie2 antibody with L234A, L235A and P331S
- Relative value (%) of luminescent intensity (Human Tie2 (1-452)g2-Fc): 72%
- Relative value (%) of luminescent intensity (Human Tie2 (1-452)y1-Fc): 109%
- Relative value (%) of luminescent intensity [1]: 97%
- Relative value (%) of luminescent intensity (Human Tie2 (1-452)r4-Fc): 101%
- Relative value (%) of luminescent intensity (Human Tie2 (1-452)g3-Fc [2]): 96%
- Relative value (%) of luminescent intensity (Human Tie2 (1-452)r2-Fc): 96%
- Relative value (%) of luminescent intensity (Human Tie2 (1-452)r1-Fc): 97%
- Relative value (%) of luminescent intensity (Human Tie2 (1-452)c1-Fc): 104%
- Relative value (%) of luminescent intensity (Human Tie2 (1-452)g6-Fc): 105%
- Relative value (%) of luminescent intensity (Human Tie2 (1-452)r5-Fc): 102%
- Relative value (%) of luminescent intensity (Human Tie2 (1-452)g4-Fc): 53%
- Relative value (%) of luminescent intensity (Human Tie2 (1-452)m3-Fc): 103%
- Relative value (%) of luminescent intensity (Human Tie2 (1-452)g1-Fc): 3%
- Relative value (%) of luminescent intensity (Human Tie2 (1-452)r3-Fc): 102%
- Relative value (%) of luminescent intensity (Human Tie2 (1-452)m1-Fc): 104%
- EC50 [3]: 1.1 ng/mL
- EC50 (Human Tie2 (1-452)g3-Fc [4]): 1.1 ng/mL

Source: patent US20160222130A1 (Astellas, published 2016)
